Test results published in patent US11306156.
Where “and” joins values, the source holds several entries; their conditions need not be identical. Equal entries are not always repeated. One block for each substance: values may come before it.

Columns and labels:
[1] = molecular target: D3H44 Fab heavy chain L143E_K145T_S188L, C-terminal ABD2-His6 tag; experiment: LCCA: heavy chain co-expressed with two light chains, SPR detection of light chain tags; L1:L2 DNA 1:3, normalized to 1:1; competing light chain m11
[2] = molecular target: D3H44 Fab heavy chain Q179R, C-terminal ABD2-His6 tag; experiment: as above
[3] = molecular target: D3H44 Fab heavy chain S186K, C-terminal ABD2-His6 tag; experiment: as above
[4] = molecular target: D3H44 Fab heavy chain L143E_K145T_Q179E_S188L, C-terminal ABD2-His6 tag; experiment: LCCA: heavy chain co-expressed with two light chains, SPR detection of light chain tags; L1:L2 DNA 1:3, normalized to 1:1; competing light chain m20
[5] = molecular target: D3H44 Fab heavy chain S186R, C-terminal ABD2-His6 tag; experiment: as above
[6] = molecular target: D3H44 Fab heavy chain L143E_K145T_S188L, C-terminal ABD2-His6 tag; experiment: LCCA: heavy chain co-expressed with two light chains, SPR detection of light chain tags; L1:L2 DNA 1:9, normalized to 1:1; competing light chain m11
[7] = molecular target: D3H44 Fab heavy chain S186K, C-terminal ABD2-His6 tag; experiment: as above
[8] = molecular target: D3H44 Fab heavy chain L143E_K145T, C-terminal ABD2-His6 tag; experiment: LCCA: heavy chain co-expressed with two light chains, SPR detection of light chain tags; L1:L2 DNA 1:3, normalized to 1:1; competing light chain m11
[9] = molecular target: D3H44 Fab heavy chain L143E_K145T, C-terminal ABD2-His6 tag; experiment: LCCA: heavy chain co-expressed with two light chains, SPR detection of light chain tags; L1:L2 DNA 1:9, normalized to 1:1; competing light chain m11
[10] = molecular target: D3H44 Fab heavy chain L143E_K145T; experiment: LCCA, L1:L2 DNA 1:3 normalised to 1:1, SPR of light chain tags; competitor m34
[11] = molecular target: D3H44 Fab heavy chain L143K_D146G; experiment: as above
[12] = molecular target: D3H44 Fab heavy chain L143E_K145T, C-terminal ABD2-His6 tag; experiment: LCCA: heavy chain co-expressed with two light chains, SPR detection of light chain tags; L1:L2 DNA 1:3, normalized to 1:1; competing light chain m18
[13] = molecular target: D3H44 Fab heavy chain L143R, C-terminal ABD2-His6 tag; experiment: as above
[14] = molecular target: D3H44 Fab heavy chain L143R, C-terminal ABD2-His6 tag; experiment: LCCA: heavy chain co-expressed with two light chains, SPR detection of light chain tags; L1:L2 DNA 1:3, normalized to 1:1; competing light chain m11
[15] = molecular target: D3H44 Fab heavy chain L143R, C-terminal ABD2-His6 tag; experiment: LCCA: heavy chain co-expressed with two light chains, SPR detection of light chain tags; L1:L2 DNA 1:9, normalized to 1:1; competing light chain m11
[16] = molecular target: D3H44 Fab heavy chain L143E_K145T, C-terminal ABD2-His6 tag; experiment: LCCA: heavy chain co-expressed with two light chains, SPR detection of light chain tags; L1:L2 DNA 1:3, normalized to 1:1; competing light chain m19
[17] = molecular target: D3H44 Fab heavy chain L143R, C-terminal ABD2-His6 tag; experiment: as above
[18] = molecular target: D3H44 Fab heavy chain L143E_K145T_S188L, C-terminal ABD2-His6 tag; experiment: LCCA: heavy chain co-expressed with two light chains, SPR detection of light chain tags; L1:L2 DNA 1:3, normalized to 1:1; competing light chain m12
[19] = molecular target: D3H44 Fab heavy chain Q179R, C-terminal ABD2-His6 tag; experiment: as above
[20] = molecular target: D3H44 Fab heavy chain S186K, C-terminal ABD2-His6 tag; experiment: as above
[21] = molecular target: D3H44 Fab heavy chain L143E_K145T, C-terminal ABD2-His6 tag; experiment: LCCA: heavy chain co-expressed with two light chains, SPR detection of light chain tags; L1:L2 DNA 1:3, normalized to 1:1; competing light chain m13
[22] = molecular target: D3H44 Fab heavy chain L143E_K145T_S188L, C-terminal ABD2-His6 tag; experiment: LCCA: heavy chain co-expressed with two light chains, SPR detection of light chain tags; L1:L2 DNA 1:3, normalized to 1:1; competing light chain m14
[23] = molecular target: D3H44 Fab heavy chain Q179K, C-terminal ABD2-His6 tag; experiment: as above
[24] = molecular target: D3H44 Fab heavy chain S186K, C-terminal ABD2-His6 tag; experiment: as above
[25] = molecular target: D3H44 Fab heavy chain L143E_K145T, C-terminal ABD2-His6 tag; experiment: LCCA: heavy chain co-expressed with two light chains, SPR detection of light chain tags; L1:L2 DNA 1:3, normalized to 1:1; competing light chain m15
[26] = molecular target: D3H44 Fab heavy chain Q179K, C-terminal ABD2-His6 tag; experiment: as above
[27] = molecular target: D3H44 Fab heavy chain L143E_K145T_S188L, C-terminal ABD2-His6 tag; experiment: LCCA: heavy chain co-expressed with two light chains, SPR detection of light chain tags; L1:L2 DNA 1:3, normalized to 1:1; competing light chain m16
[28] = molecular target: D3H44 Fab heavy chain Q179K, C-terminal ABD2-His6 tag; experiment: as above
[29] = molecular target: D3H44 Fab heavy chain L143E_K145T_S188L, C-terminal ABD2-His6 tag; experiment: LCCA: heavy chain co-expressed with two light chains, SPR detection of light chain tags; L1:L2 DNA 1:3, normalized to 1:1; competing light chain m17
[30] = molecular target: D3H44 Fab heavy chain L143R, C-terminal ABD2-His6 tag; experiment: as above
[31] = molecular target: D3H44 Fab heavy chain L143E_K145T_S188L, C-terminal ABD2-His6 tag; experiment: LCCA: heavy chain co-expressed with two light chains, SPR detection of light chain tags; L1:L2 DNA 1:9, normalized to 1:1; competing light chain m12
[32] = molecular target: D3H44 Fab heavy chain S186K, C-terminal ABD2-His6 tag; experiment: as above
[33] = molecular target: D3H44 Fab heavy chain L143E_K145T, C-terminal ABD2-His6 tag; experiment: LCCA: heavy chain co-expressed with two light chains, SPR detection of light chain tags; L1:L2 DNA 1:9, normalized to 1:1; competing light chain m13
[34] = molecular target: D3H44 Fab heavy chain S186K, C-terminal ABD2-His6 tag; experiment: as above
[35] = molecular target: D3H44 Fab heavy chain L143E_K145T_S188L, C-terminal ABD2-His6 tag; experiment: LCCA: heavy chain co-expressed with two light chains, SPR detection of light chain tags; L1:L2 DNA 1:9, normalized to 1:1; competing light chain m17
[36] = molecular target: D3H44 Fab heavy chain L143R, C-terminal ABD2-His6 tag; experiment: as above
[37] = molecular target: D3H44 Fab heavy chain L143E_K145T_Q179E_S188L, C-terminal ABD2-His6 tag; experiment: LCCA: heavy chain co-expressed with two light chains, SPR detection of light chain tags; L1:L2 DNA 1:3, normalized to 1:1; competing light chain m12
[38] = molecular target: D3H44 Fab heavy chain S186R, C-terminal ABD2-His6 tag; experiment: as above
[39] = molecular target: tissue factor (TF) antigen (UniProt P13726); experiment: SPR; log change of median KD against wild-type D3H44 Fab
[40] = molecular target: tissue factor (TF) antigen (UniProt P13726); experiment: SPR, Fab captured by anti-penta-His, TF injected, 1:1 fit
[41] = molecular target: tissue factor (TF) antigen (UniProt P13726); experiment: SPR; log change of median KD against wild-type D3H44 Fab; estimated (*) from a Fab that differs only in the L chain tag
[42] = molecular target: tissue factor (TF) antigen (UniProt P13726); experiment: SPR, Fab captured by anti-penta-His, TF injected, 1:1 fit; estimated (*) from a Fab that differs only in the L chain tag

Substance: D3H44 light chain Q124E_S131T_T178Y_T180E, N-terminal HA or FLAG tag
H1L1:H1L2 normalized median ratio [1]: 26%
H2L2:H2L1 normalized median ratio [2]: 95%
H2L2:H2L1 normalized median ratio [3]: 94%
H1L1:H1L2 normalized median ratio [4]: 17%
H2L2:H2L1 normalized median ratio [5]: 88%
H1L1:H1L2 normalized median ratio [6]: 16%
H2L2:H2L1 normalized median ratio [7]: 89%

Substance: D3H44 light chain Q124R_Q160K_T178R, N-terminal HA or FLAG tag
H1L1:H1L2 normalized median ratio [18]: 74%
H1L1:H1L2 normalized median scalar value ln(r1/f1) [18]: 1.03
H2L2:H2L1 normalized median ratio [19]: 5%
H2L2:H2L1 normalized median ratio [20]: 6%
H1L1:H1L2 normalized median ratio [21]: 82%
H1L1:H1L2 normalized median scalar value ln(r1/f1) [21]: 1.77
H1L1:H1L2 normalized median ratio [22]: 57%
H1L1:H1L2 normalized median scalar value ln(r1/f1) [22]: 0.28 and 0.23
H2L2:H2L1 normalized median ratio [23]: 3%
H2L2:H2L1 normalized median ratio [24]: 3%
H1L1:H1L2 normalized median ratio [25]: 47%
H1L1:H1L2 normalized median scalar value ln(r1/f1) [25]: -0.14
H2L2:H2L1 normalized median ratio [26]: 2%
H1L1:H1L2 normalized median ratio [27]: 59%
H1L1:H1L2 normalized median scalar value ln(r1/f1) [27]: 0.37
H2L2:H2L1 normalized median ratio [28]: 3%
H1L1:H1L2 normalized median ratio [29]: 74%
H1L1:H1L2 normalized median scalar value ln(r1/f1) [29]: 1.04
H2L2:H2L1 normalized median ratio [30]: 6%
H1L1:H1L2 normalized median ratio [31]: 84%
H1L1:H1L2 normalized median scalar value ln(r1/f1) [31]: 1.65
H2L2:H2L1 normalized median ratio [32]: 11%
H1L1:H1L2 normalized median ratio [33]: 81%
H1L1:H1L2 normalized median scalar value ln(r1/f1) [33]: 1.44
H2L2:H2L1 normalized median ratio [34]: 10%
H1L1:H1L2 normalized median ratio [35]: 86%
H1L1:H1L2 normalized median scalar value ln(r1/f1) [35]: 1.79
H2L2:H2L1 normalized median ratio [36]: 21%

Substance: D3H44 light chain Q124R_T178R, N-terminal HA or FLAG tag
H1L1:H1L2 normalized median ratio [37]: 83%
H1L1:H1L2 normalized median scalar value ln(r1/f1) [37]: 1.62
H2L2:H2L1 normalized median ratio [38]: 12%

Substance: H1L1 Fab heterodimer of LCCA sets 9589, 9587, 9588 and 9585 (D3H44 Fab, H1 L143E_K145T, L1 Q124R)
Change in median values of KD of h1l1 Fab heterodimer compared to wild type (-(log(KD design)-log(KD wt))) [39]: -0.25 log units
Kd [40]: 280 pM
Change in median values of KD of h1l1 Fab heterodimer compared to wild type (-(log(KD design)-log(KD wt))) [41]: -0.25 log units
Kd [42]: 280 pM

Now from value to substance:

H1L1:H1L2 normalized median ratio [8]: 18%
H2L2:H2L1 normalized median ratio [3]: 91%
H1L1:H1L2 normalized median ratio [9]: 19%
H2L2:H2L1 normalized median ratio [7]: 90%
Substance: D3H44 light chain Q124E_T178E_T180E, N-terminal HA or FLAG tag

H1L1:H1L2 normalized median ratio [10]: 33%
H2L2:H2L1 normalized median ratio [11]: 91%
Substance: D3H44 light chain Q124E_V133D

H1L1:H1L2 normalized median ratio [12]: 15%
H2L2:H2L1 normalized median ratio [13]: 88%
Substance: D3H44 light chain Q124E_V133E_Q160M, N-terminal HA or FLAG tag

H1L1:H1L2 normalized median ratio [1]: 26%
H2L2:H2L1 normalized median ratio [14]: 94%
H1L1:H1L2 normalized median ratio [6]: 14%
H2L2:H2L1 normalized median ratio [15]: 79%
Substance: D3H44 light chain Q124E_V133E_S176L, N-terminal HA or FLAG tag

H1L1:H1L2 normalized median ratio [16]: 85%
H1L1:H1L2 normalized median scalar value ln(r1/f1) [16]: 1.77
H2L2:H2L1 normalized median ratio [17]: 12%
Substance: D3H44 light chain Q124R, N-terminal HA or FLAG tag
